From patent publication US6974798B2, “Treatment of balance impairments” (Genentech, Inc., priority 1995, dated 2005)
Entries after “also recorded” stand apart in the source; their conditions may differ.

Legend:
[1] = cited from earlier work
[2] = tested on: vestibular ganglion neurons (VGNs); assay: VGN survival in dissociated cell culture, serum-free medium, 2 days; assay type: cell-based, rat; details: for survival-promoting effect on VGNs: 10 ng/ml added at plating
Procedure: (§1) The effects of trkB or trkC agonists to enhance neuronal survival was determined using VGNs in cell culture. VGN cell culture was prepared as follows. Vestibular ganglia were dissected from postnatal day 5 (P5) Wistar rats and were incubated in a mixture of 0.125% trypsin and 0.125% collagenase for 25 min at 37° C. The enzyme was inactivated with a mixture of 0.005% soybean trypsin inhibitor (Sigma) and 0.005% DNase (Worthington) before trituration with 0.05% DNase in Eagle's Basal Medium (“BME”). After the undissociated tissues were separated by filtering with a Nylon meshwork (33 μm in pore size), the dissociated cells were preplated on a 35 mm untreated tissue culture dish for 25 min to enrich the neuronal population. Under these experimental procedures, about 3-5% of the cell population were vestibular ganglion neurons (VGNs) as determined by immunocytochemistry with a monoclonal antibody (N52; Boehringer) against neurofilament (200 kd). The cell suspension was finally plated on polylysine (500 μg/ml)laminin (20 μg/ml) coated 16-well LabTek slides in 200 μl of serum-free medium (BME plus serum-free supplement (Sigma I-1884), 1% BSA, 2 mM glutamine, and 5 mg/ml glucose) containing no antibiotics. Cells were plated at a density of 100,000/well.
All human recombinant neurotrophins (obtained from Genentech, Inc.) were added to the cultures at the time of plating.
(§2) Cell counts and data analysis were performed as follows. After 2 days in culture, viable VGNs were identified by labeling with the neurofilament monoclonal antibody N52 and counted using a grid ocular reticule covering an area of 1 mm^2 under a Zeiss Axiophot microscope. For each culture, about 10 randomly selected fields were counted. In these experiments, cell counts were performed in the same way for control cultures. Data were collected from triplet cultures for each of the experimental groups. Data were then normalized as a percentage of the viable VGNs in the control cultures in each of the experiments.
The effect of neurotrophins on cell survival was determined on VGNs which were dissociated from postnatal day 5 (P5) rat vestibular ganglia and plated in defined serum-free medium. Neurofilament protein immunocytochemistry using bright field microscopy was performed in the VGN cultures in serum-free medium in the absence or presence of 10 ng/ml of NT-4/5. In control cultures in serum-free medium without neurotrophins, about 35% of VGNs survived after 2 days. […] The survival-promoting effects of NT-4/5 on cultured VGNs were dose-dependent (FIG. 1).

[3] = tested on: vestibular ganglion neurons (VGNs); assay: Protection of cultured VGNs from cisplatin neurotoxicity; assay type: cell-based, rat; details: for protective effect against cisplatin neurotoxicity: 1, 2 or 4 μg/ml cisplatin, 10 ng/ml factor, 2 days
Procedure: as §1, §2
(§3) The ability of trkB or trkC agonists to protect neurons from ototoxicity was determined using VGNs in cell culture. […] All human recombinant neurotrophins (Genentech, Inc.) were added to the cultures at the time of plating. To block the effects of the neurotrophins, 1 μg/ml of trkB-IgG or trkC-IgG (kindly provided by Dr. Dave Shelton), specific antagonists for NT-4/5 (and BDNF) or NT-3, respectively (Shelton et al., 1995), was added to some of the experimental cultures at the same time when neurotrophins were added. […] In other experiments, epidermal growth factor (EGF), basic fibroblast growth factor (βFGF) and insulin-like growth factor-1 (IGF-1) were added to the culture at the time of plating at a concentration of 10 ng/ml. […] In these experiments, cell counts were performed in the same way for control cultures.

trkC receptor = trkC receptor (Homo sapiens, UniProt Q16288); details: cited from earlier work; for trkC binding of NT-3 mutants: relative to NT-3
trkB receptor = trkB receptor (Homo sapiens, UniProt Q16620); details: naturally occurring NGF versus BDNF; cited from earlier work
[4] = tested on: vestibular ganglion neurons (VGNs); assay: Protection of cultured VGNs against gentamicin neurotoxicity; assay type: cell-based, rat; details: FIG. 5; for protective effect against gentamicin neurotoxicity: 1, 2 or 3 mg/ml gentamicin, 10 ng/ml factor, 2 days
Procedure: as §1, §2, §3

hair cells = details: Warchol et al., 1993, Lefebvre et al.; cited from earlier work
[5] = tested on: vestibular ganglion neurons (VGNs); assay: Ototoxin-induced cell death of VGNs in culture; assay type: cell-based, rat
Procedure: The ability of trkB or trkC agonists to protect neurons from ototoxicity was determined using VGNs in cell culture. […] All human recombinant neurotrophins (Genentech, Inc.) were added to the cultures at the time of plating. […]

[6] = tested on: vestibular ganglion neurons (VGNs); assay: Blocking of neurotrophin survival-promoting effects by trkB-IgG / trkC-IgG in VGN culture; assay type: cell-based, rat; details: for effect on VGN cultures by themselves (without neurotrophin): 1 μg/ml, alone; for effect of trkB-IgG and trkC-IgG together on the effects of NT-4/5 and NT-3: both fusion proteins together
Procedure: as §1, §2
TrkB-IgG and trkC-IgG have been previously reported to be specific antagonists for NT-4/5 (or BDNF) and NT-3, respectively (Shelton et al., 1995). To confirm that the survival-promoting effects of NT-4/5, BDNF and NT-3 were specific, trkB-IgG or trkC-IgG fusion protein was added to the culture along with NT-4/5, BDNF or NT-3. All human recombinant neurotrophins (Genentech, Inc.) were added to the cultures at the time of plating. To block the effects of the neurotrophins, 1 μg/ml of trkB-IgG or trkC-IgG (kindly provided by Dr. Dave Shelton), specific antagonists for NT-4/5 (and BDNF) or NT-3, respectively (Shelton et al., 1995), was added to some of the experimental cultures at the same time when neurotrophins were added.

[7] = culture containing cisplatin, FIG. 4

Chain of trkC receptor (Q16288 32-839): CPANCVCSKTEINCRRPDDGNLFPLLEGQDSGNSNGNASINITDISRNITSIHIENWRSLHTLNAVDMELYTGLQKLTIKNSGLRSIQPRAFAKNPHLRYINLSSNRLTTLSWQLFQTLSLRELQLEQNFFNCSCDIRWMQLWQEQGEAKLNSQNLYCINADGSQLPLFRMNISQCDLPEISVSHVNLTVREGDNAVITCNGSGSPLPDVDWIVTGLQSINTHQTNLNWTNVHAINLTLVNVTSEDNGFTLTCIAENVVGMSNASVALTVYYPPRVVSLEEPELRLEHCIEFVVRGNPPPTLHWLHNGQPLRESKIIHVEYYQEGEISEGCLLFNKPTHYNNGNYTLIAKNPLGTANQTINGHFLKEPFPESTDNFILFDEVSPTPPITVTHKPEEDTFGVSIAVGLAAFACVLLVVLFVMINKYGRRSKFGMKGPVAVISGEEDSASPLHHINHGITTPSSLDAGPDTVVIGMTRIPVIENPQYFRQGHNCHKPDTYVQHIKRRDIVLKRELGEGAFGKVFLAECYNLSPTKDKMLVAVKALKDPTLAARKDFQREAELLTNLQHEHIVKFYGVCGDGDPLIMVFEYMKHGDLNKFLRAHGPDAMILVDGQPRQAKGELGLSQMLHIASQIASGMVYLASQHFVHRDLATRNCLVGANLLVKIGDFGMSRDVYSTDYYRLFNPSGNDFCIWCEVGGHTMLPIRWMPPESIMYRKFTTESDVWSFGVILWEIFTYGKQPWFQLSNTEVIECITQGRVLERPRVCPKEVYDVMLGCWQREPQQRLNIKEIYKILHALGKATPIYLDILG
Chain of trkB receptor (Q16620 32-822): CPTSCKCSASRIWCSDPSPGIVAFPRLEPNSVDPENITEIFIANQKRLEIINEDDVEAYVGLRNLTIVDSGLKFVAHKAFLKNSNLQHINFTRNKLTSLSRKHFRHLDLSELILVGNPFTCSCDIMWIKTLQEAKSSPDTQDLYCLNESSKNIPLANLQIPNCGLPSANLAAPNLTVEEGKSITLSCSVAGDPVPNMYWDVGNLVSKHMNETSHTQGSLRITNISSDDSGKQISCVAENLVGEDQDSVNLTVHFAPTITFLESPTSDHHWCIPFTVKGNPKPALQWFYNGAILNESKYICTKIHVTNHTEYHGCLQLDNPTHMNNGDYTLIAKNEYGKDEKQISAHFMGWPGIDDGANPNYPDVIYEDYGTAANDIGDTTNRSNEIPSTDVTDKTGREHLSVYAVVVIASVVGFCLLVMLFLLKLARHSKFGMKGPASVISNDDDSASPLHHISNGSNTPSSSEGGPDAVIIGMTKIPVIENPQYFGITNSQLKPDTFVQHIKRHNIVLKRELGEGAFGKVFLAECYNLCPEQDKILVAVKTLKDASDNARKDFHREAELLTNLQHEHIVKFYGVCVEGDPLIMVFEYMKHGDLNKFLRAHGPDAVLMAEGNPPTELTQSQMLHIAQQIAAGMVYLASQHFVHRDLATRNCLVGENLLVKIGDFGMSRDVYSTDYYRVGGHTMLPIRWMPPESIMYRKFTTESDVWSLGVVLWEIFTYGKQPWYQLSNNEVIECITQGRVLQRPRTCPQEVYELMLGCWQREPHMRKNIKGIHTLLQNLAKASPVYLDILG

[H]/N=C(/N)N[C@H]1[C@H](O)[C@@H](O)[C@H](O[C@@H]2O[C@@H](C)[C@](O)(C=O)[C@H]2O[C@@H]2O[C@@H](CO)[C@H](O)[C@@H](O)[C@@H]2NC)[C@@H](N/C(N)=N\[H])[C@@H]1O [streptomycin]
incidence of vestibular impairment ([1]; 1 gram per day): 25% | patients displaying some vestibular impairment ([1]; 2 grams daily for 60 to 120 days): ~75%

EGF: epidermal growth factor
survival-promoting effect on VGNs ([2]; 2 days, FIG. 2): not affected; also recorded: did not produce significant effects

IGF-1: insulin-like growth factor-1
survival-promoting effect on VGNs ([2]; 2 days, FIG. 2): not affected; also recorded: did not produce significant effects

NGF: human recombinant nerve growth factor, ligand of trkA
survival-promoting effect on VGNs ([2]; 2 days, FIG. 2): did not show any detectable effect; also recorded: did not produce significant effects | protective effect against cisplatin neurotoxicity ([3]; FIG. 4): no protective effects | KD at trkC relative to NT-3 (fold lower) (trkC receptor; naturally occurring NGF versus NT-3): 500-1000 fold | KD at trkB relative to BDNF (fold lower) (trkB receptor): 500-1000 fold | protective effect against gentamicin neurotoxicity [4]: showed no effect

R31A: NT-3 mutant with mutation at position R31 to alanine
trkC binding of NT-3 mutants (trkC receptor): increased trkC binding

gentamicin
concentrations needed to destroy hair cells (hair cells): 0.5 to 1 mg/mL | VGN death ([5]; 3 mgiml of gentamicin): a majority of VGNs died | inhibition of VGN survival by the ototoxin ([5]; added at plating at various concentrations, FIGS. 4 and 5): dose-dependent inhibition of VGN survival | concentrations at which induced VGN cell death was observed ([5]; present experiments): 1 to 3 mg/mL

trkB-IgG: trkB-IgG fusion protein, specific antagonist for NT-4/5 and BDNF (Shelton et al., 1995)
inhibition of the survival-promoting effect of BDNF ([6]; 1 μg/ml antagonist, 10 ng/ml BDNF, FIG. 3): completely abolished; also recorded: inhibit | inhibition of the survival-promoting effect of NT-4/5 ([6]; 1 μg/ml antagonist, 10 ng/ml NT-4/5, FIG. 3): completely abolished; also recorded: inhibit | effect on VGN cultures by themselves (without neurotrophin) [6]: did not show detectable effects | effect of trkB-IgG and trkC-IgG together on the effects of NT-4/5 and NT-3 [6]: blocked

trkC-IgG: trkC-IgG fusion protein, specific antagonist for NT-3 (Shelton et al., 1995)
inhibition of the survival-promoting effect of NT-3 ([6]; 1 μg/ml antagonist, 10 ng/ml NT-3, FIG. 3): inhibited the activity of NT-3; also recorded: inhibit | effect on VGN cultures by themselves (without neurotrophin) [6]: did not show detectable effects | effect of trkB-IgG and trkC-IgG together on the effects of NT-4/5 and NT-3 [6]: blocked

βFGF: basic fibroblast growth factor
survival-promoting effect on VGNs ([2]; 2 days, FIG. 2): not affected; also recorded: did not produce significant effects

B1: E92A: NT-3 mutant with mutation at position E92 to alanine (protein, UniProt P20783 139-257, looked up, variant E92A)
Neurotrophin-3: YAEHKSHRGEYSVCDSESLWVTDKSSAIDIRGHQVTVLGEIKTGNSPVKQYFYETRCKEARPVKNGCRGIDDKHWNSQCKTSQTYVRALTSANNKLVGWRWIRIDTSCVCALSRKIGRT
trkC binding of NT-3 mutants (trkC receptor): increased trkC binding

B2: NT-4/5: human recombinant neurotrophin-4/5 (Genentech, Inc.), ligand of trkB (protein)
chain: GVSETAPASRRGELAVCDAVSGWVTDRRTAVDLRGREVEVLGEVPAAGGSPLRQYFFETRCKADNAEEGGPGAGGGGCRGVDRRHWVSECKAKQSYVRALTAHAQGRVGWRWIRIDTACVCTLLSRTGRA
survival-promoting effect on VGNs ([2]; 2 days, FIG. 2): very significant survival promoting effects | additive/synergistic effect on VGN survival, NT-4/5 combined with BDNF ([2]; 10 ng/ml, FIG. 2): no synergistic effects were observed | additive/synergistic effect on VGN survival, NT-4/5 combined with NT-3 ([2]; 10 ng/ml, FIG. 2): no synergistic effects were observed | survival-promoting effect on VGNs over the dose range ([2]; NT-4/5 at different concentrations, 2 days, FIG. 1): dose-dependent; also recorded: very significant survival-promoting effects | concentration of maximal survival-promoting effect ([2]; doses from 0.1 to 50 ng/ml examined, FIG. 1): 10 ng/mL | number of surviving VGNs relative to cisplatin alone and to control ([3]; 1 μg/ml or 2 μg/ml cisplatin, 10 ng/ml neurotrophin): higher than the control culture without cisplatin | VGN survival ([3]; 4 μg/ml cisplatin, 10 ng/ml neurotrophin, FIG. 4): about 60 % of the survival levels of control cultures in the absence of cisplatin | protective effect against cisplatin neurotoxicity ([3]; FIG. 4): significantly ameliorated the toxic effects of cisplatin; also recorded: very significant protecting effects at all three doses | additive effect, NT-4/5 combined with BDNF, cisplatin culture [3, 7]: no additive effects were observed | additive effect, NT-4/5 combined with NT-3, cisplatin culture [3, 7]: no additive effects were observed | protective effect against gentamicin neurotoxicity [4]: very significant protective effects at all three doses of gentamicin | additive effect, NT-4/5 combined with BDNF, gentamicin culture ([4]; culture containing gentamicin): no additive effects were observed | additive effect, NT-4/5 combined with NT-3, gentamicin culture ([4]; culture containing gentamicin): no additive effects were observed

B3: BDNF: human recombinant brain-derived neurotrophic factor, ligand of trkB (protein)
chain: HSDPARRGELSVCDSISEWVTAADKKTAVDMSGGTVTVLEKVPVSKGQLKQYFYETKCNPMGYTKEGCRGIDKRHWNSQCRTTQSYVRALTMDSKKRIGWRFIRIDTSCVTLTIKRGR
survival-promoting effect on VGNs ([2]; 2 days, FIG. 2): equivalent to NT-4/5; also recorded: very significant survival promoting effects | increase in the number of surviving VGNs ([2]; P5 rat VGNs, 2 days in serum-free medium, versus control culture without neurotrophin): 2 fold | protective effect against cisplatin neurotoxicity ([3]; FIG. 4): equivalent effectiveness; also recorded: very significant protecting effects at all three doses | protective effect against gentamicin neurotoxicity [4]: an effect equivalent to NT-4/5; also recorded: very significant protective effects at all three doses of gentamicin

B4: NT-3: human recombinant neurotrophin-3, ligand of trkC (protein)
chain: YAEHKSHRGEYSVCDSESLWVTDKSSAIDIRGHQVTVLGEIKTGNSPVKQYFYETRCKEARPVKNGCRGIDDKHWNSQCKTSQTYVRALTSENNKLVGWRWIRIDTSCVSALSRKIGRT
survival-promoting effect on VGNs ([2]; 2 days, FIG. 2): significant effect (p<0.01) but was less potent than NT-4/5 and BDNF; also recorded: very significant survival promoting effects | protective effect against cisplatin neurotoxicity ([3]; FIG. 4): Significant protective, but less potent effects; also recorded: very significant protecting effects at all three doses | protective effect against gentamicin neurotoxicity [4]: significantly protective effect; also recorded: very significant protective effects at all three doses of gentamicin
